# T1: human PAC1 receptor (human, UniProt P41586 24-468)
# T1 sequence: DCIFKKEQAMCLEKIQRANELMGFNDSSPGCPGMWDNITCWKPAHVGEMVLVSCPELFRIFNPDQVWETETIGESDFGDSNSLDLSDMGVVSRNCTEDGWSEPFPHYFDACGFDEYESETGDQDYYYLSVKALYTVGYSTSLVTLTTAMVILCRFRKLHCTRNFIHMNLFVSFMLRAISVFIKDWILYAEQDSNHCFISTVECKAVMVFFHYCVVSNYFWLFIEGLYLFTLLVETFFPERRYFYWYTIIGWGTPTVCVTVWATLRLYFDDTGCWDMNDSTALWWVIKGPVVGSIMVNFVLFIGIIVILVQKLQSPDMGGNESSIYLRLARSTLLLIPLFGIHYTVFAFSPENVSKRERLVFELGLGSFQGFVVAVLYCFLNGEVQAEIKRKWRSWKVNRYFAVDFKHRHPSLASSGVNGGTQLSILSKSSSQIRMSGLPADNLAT
# What was measured:
# human PAC1 receptor = molecular target: T1, human PAC1 receptor; assay: cell-based or functional assay
# human CGRP receptor = human CGRP receptor (human, UniProt Q16602 23-461; O60894 27-148); assay: cell-based or functional assay
# Sequence of human CGRP receptor (Q16602 23-461 limits assumed, chain 1 of 2): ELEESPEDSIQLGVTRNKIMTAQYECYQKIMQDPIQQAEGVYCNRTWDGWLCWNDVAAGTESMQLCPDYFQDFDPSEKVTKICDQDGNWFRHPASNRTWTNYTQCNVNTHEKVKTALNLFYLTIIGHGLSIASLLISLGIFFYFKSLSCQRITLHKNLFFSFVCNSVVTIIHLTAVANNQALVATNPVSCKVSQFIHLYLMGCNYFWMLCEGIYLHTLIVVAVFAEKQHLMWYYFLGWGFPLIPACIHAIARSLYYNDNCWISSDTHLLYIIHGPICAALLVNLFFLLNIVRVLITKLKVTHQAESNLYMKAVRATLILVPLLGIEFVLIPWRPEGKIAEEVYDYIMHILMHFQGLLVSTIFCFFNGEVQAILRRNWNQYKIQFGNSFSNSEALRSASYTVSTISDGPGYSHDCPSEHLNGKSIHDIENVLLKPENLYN
# Sequence of human CGRP receptor (O60894 27-148 limits assumed, chain 2 of 2): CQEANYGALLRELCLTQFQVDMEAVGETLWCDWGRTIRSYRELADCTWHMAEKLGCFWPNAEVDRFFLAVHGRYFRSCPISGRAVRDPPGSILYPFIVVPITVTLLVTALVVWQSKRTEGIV
Binder,Fold-improvement over 29G4v22 Ab (human PAC1 receptor),IC50 (human PAC1 receptor),Fold-improvement over 4E4 Ab (human CGRP receptor),IC50 (human CGRP receptor)
"iPS:454741 (bispecific antibody, human IgG1, kappa, lambda, N297G) light 1: QSVLTQPPSVSAAPGQKVTISCSGSYSNIGRYSVSWYQQLPGTAPKLLIYDNNKRPSGIPDRFSGSKSGTSATLGITGLQTGDEADYYCGTWDSRLSAVVFGGGTKLTVLGQPKAAPSVTLFPPSSEELQANKATLVCLISDFYPGAVTVAWKADSSPVKAGVETTTPSKQSNNKYAAKSYLSLTPEQWKSHRSYSCQVTHEGSTVEKTVAPTECS heavy 1: QVQLVESGGGVVQPGRSLRLSCAASGFTFSSFGMHWVRQAPGKGLEWVAVISFDGSIKYSVDSVKGRFTISRDNSKNTLFLQMNSLRAEDTAVYYCARDRLNYYESSGYYHYKYYGMAVWGQGTTVTVSSASTKGPSVFPLAPSSKSTSGGTAALGCLVKDYFPEPVTVSWNSGALTSGVHTFPAVLQSSGLYSLESVVTVPSSSLGTQTYICNVNHKPSNTKVDKKVEPKSCDKTHTCPPCPAPELLGGPSVFLFPPKPKDTLMISRTPEVTCVVVDVSHEDPEVKFNWYVDGVEVHNAKTKPCEEQYGSTYRCVSVLTVLHQDWLNGKEYKCKVSNKALPAPIEKTISKAKGQPREPQVYTLPPSRKKMTKNQVSLTCLVKGFYPSDIAVEWESNGQPENNYKTTPPVLKSDGSFFLYSKLTVDKSRWQQGNVFSCSVMHEALHNHYTQKSLSLSPGK light 2: EIVLTQSPATLSLSPGERATLSCRASKSVGQSLHWYQQKPGQAPRLLIKYASQSLSGIPARFSGSGSGTDFTLTISSLEPEDFAVYYCHQSSRLPFTFGPGTKVDIKRTVAAPSVFIFPPSDEQLKSGTASVVCLLNNFYPREAKVQWKVDNALQSGNSQESVTEQDSKDSTYSLESTLTLSKADYEKHKVYACEVTHQGLSSPVTKSFNRGEC heavy 2: not shown",4.2 fold,1.58 nM,0.8 fold,0.64 nM
"iPS:454745 (bispecific antibody, human IgG1, kappa, lambda, N297G) light 1: QSVLTQPPSVSAAPGQKVTISCSGSYSNIGRYSVSWYQQLPGTAPKLLIYDNNKRPSGIPDRFSGSKSGTSATLGITGLQTGDEADYYCGTWDSRLSAVVFGGGTKLTVLGQPKAAPSVTLFPPSSEELQANKATLVCLISDFYPGAVTVAWKADSSPVKAGVETTTPSKQSNNKYAAKSYLSLTPEQWKSHRSYSCQVTHEGSTVEKTVAPTECS heavy 1: QVQLVESGGGVVQPGRSLRLSCAASGFTFSSFGMHWVRQAPGKGLEWVAVISFDGSIKYSVDSVKGRFTISRDNSKNTLFLQMNSLRAEDTAVYYCARDRLNYYESSGYYHYKYYGMAVWGQGTTVTVSSASTKGPSVFPLAPSSKSTSGGTAALGCLVKDYFPEPVTVSWNSGALTSGVHTFPAVLQSSGLYSLESVVTVPSSSLGTQTYICNVNHKPSNTKVDKKVEPKSCDKTHTCPPCPAPELLGGPSVFLFPPKPKDTLMISRTPEVTCVVVDVSHEDPEVKFNWYVDGVEVHNAKTKPCEEQYGSTYRCVSVLTVLHQDWLNGKEYKCKVSNKALPAPIEKTISKAKGQPREPQVYTLPPSRKKMTKNQVSLTCLVKGFYPSDIAVEWESNGQPENNYKTTPPVLKSDGSFFLYSKLTVDKSRWQQGNVFSCSVMHEALHNHYTQKSLSLSPGK light 2: EIVLTQSPATLSLSPGERATLSCRASKAVGFSLHWYQQKPGQAPRLLIKYASQSLSGIPARFSGSGSGTDFTLTISSLEPEDFAVYYCHQSSFLPFTFGPGTKVDIKRTVAAPSVFIFPPSDEQLKSGTASVVCLLNNFYPREAKVQWKVDNALQSGNSQESVTEQDSKDSTYSLESTLTLSKADYEKHKVYACEVTHQGLSSPVTKSFNRGEC heavy 2: not shown",5.2 fold,1.2 nM,1.3 fold,0.46 nM
"iPS:454743 (bispecific antibody, human IgG1, kappa, lambda, N297G) light 1: QSVLTQPPSVSAAPGQKVTISCSGSYSNIGRYSVSWYQQLPGTAPKLLIYDNNKRPSGIPDRFSGSKSGTSATLGITGLQTGDEADYYCGTWDSRLSAVVFGGGTKLTVLGQPKAAPSVTLFPPSSEELQANKATLVCLISDFYPGAVTVAWKADSSPVKAGVETTTPSKQSNNKYAAKSYLSLTPEQWKSHRSYSCQVTHEGSTVEKTVAPTECS heavy 1: QVQLVESGGGVVQPGRSLRLSCAASGFTFSSFGMHWVRQAPGKGLEWVAVISFDGSIKYSVDSVKGRFTISRDNSKNTLFLQMNSLRAEDTAVYYCARDRLNYYESSGYYHYKYYGMAVWGQGTTVTVSSASTKGPSVFPLAPSSKSTSGGTAALGCLVKDYFPEPVTVSWNSGALTSGVHTFPAVLQSSGLYSLESVVTVPSSSLGTQTYICNVNHKPSNTKVDKKVEPKSCDKTHTCPPCPAPELLGGPSVFLFPPKPKDTLMISRTPEVTCVVVDVSHEDPEVKFNWYVDGVEVHNAKTKPCEEQYGSTYRCVSVLTVLHQDWLNGKEYKCKVSNKALPAPIEKTISKAKGQPREPQVYTLPPSRKKMTKNQVSLTCLVKGFYPSDIAVEWESNGQPENNYKTTPPVLKSDGSFFLYSKLTVDKSRWQQGNVFSCSVMHEALHNHYTQKSLSLSPGK light 2: EIVLTQSPATLSLSPGERATLSCRASKSVGQSLHWYQQKPGQAPRLLIKYASQSLSGIPARFSGSGSGTDFTLTISSLEPEDFAVYYCHQSSRLPFTFGPGTKVDIKRTVAAPSVFIFPPSDEQLKSGTASVVCLLNNFYPREAKVQWKVDNALQSGNSQESVTEQDSKDSTYSLESTLTLSKADYEKHKVYACEVTHQGLSSPVTKSFNRGEC heavy 2: not shown",3.8 fold,1.66 nM,1.1 fold,0.52 nM

# The remaining lines, values ahead:
Fold-improvement over 29G4v22 Ab (human PAC1 receptor),IC50 (human PAC1 receptor),Fold-improvement over 4E4 Ab (human CGRP receptor),IC50 (human CGRP receptor),Binder
7.5 fold,0.83 nM,1.4 fold,0.41 nM,"iPS:454749 (bispecific antibody, human IgG1, kappa, lambda, N297G) light 1: QSVLTQPPSVSAAPGQKVTISCSGSYSNIGRYSVSWYQQLPGTAPKLLIYDNNKRPSGIPDRFSGSKSGTSATLGITGLQTGDEADYYCGTWDSRLSAVVFGGGTKLTVLGQPKAAPSVTLFPPSSEELQANKATLVCLISDFYPGAVTVAWKADSSPVKAGVETTTPSKQSNNKYAAKSYLSLTPEQWKSHRSYSCQVTHEGSTVEKTVAPTECS heavy 1: QVQLVESGGGVVQPGRSLRLSCAASGFTFSSFGMHWVRQAPGKGLEWVAVISFDGSIKYSVDSVKGRFTISRDNSKNTLFLQMNSLRAEDTAVYYCARDRLNYYESSGYYHYKYYGMAVWGQGTTVTVSSASTKGPSVFPLAPSSKSTSGGTAALGCLVKDYFPEPVTVSWNSGALTSGVHTFPAVLQSSGLYSLESVVTVPSSSLGTQTYICNVNHKPSNTKVDKKVEPKSCDKTHTCPPCPAPELLGGPSVFLFPPKPKDTLMISRTPEVTCVVVDVSHEDPEVKFNWYVDGVEVHNAKTKPCEEQYGSTYRCVSVLTVLHQDWLNGKEYKCKVSNKALPAPIEKTISKAKGQPREPQVYTLPPSRKKMTKNQVSLTCLVKGFYPSDIAVEWESNGQPENNYKTTPPVLKSDGSFFLYSKLTVDKSRWQQGNVFSCSVMHEALHNHYTQKSLSLSPGK light 2: EIVLTQSPATLSLSPGERATLSCRASKSVGRSLHWYQQKPGQAPRLLIKYASQSLSGIPARFSGSGSGTDFTLTISSLEPEDFAVYYCHQSSRLPFTFGPGTKVDIKRTVAAPSVFIFPPSDEQLKSGTASVVCLLNNFYPREAKVQWKVDNALQSGNSQESVTEQDSKDSTYSLESTLTLSKADYEKHKVYACEVTHQGLSSPVTKSFNRGEC heavy 2: not shown"
2 fold,3.09 nM,1.2 fold,0.49 nM,"iPS:454747 (bispecific antibody, human IgG1, kappa, lambda, N297G) light 1: QSVLTQPPSVSAAPGQKVTISCSGSYSNIGRYSVSWYQQLPGTAPKLLIYDNNKRPSGIPDRFSGSKSGTSATLGITGLQTGDEADYYCGTWDSRLSAVVFGGGTKLTVLGQPKAAPSVTLFPPSSEELQANKATLVCLISDFYPGAVTVAWKADSSPVKAGVETTTPSKQSNNKYAAKSYLSLTPEQWKSHRSYSCQVTHEGSTVEKTVAPTECS heavy 1: QVQLVESGGGVVQPGRSLRLSCAASGFTFSSFGMHWVRQAPGKGLEWVAVISFDGSIKYSVDSVKGRFTISRDNSKNTLFLQMNSLRAEDTAVYYCARDRLNYYESSGYYHYKYYGMAVWGQGTTVTVSSASTKGPSVFPLAPSSKSTSGGTAALGCLVKDYFPEPVTVSWNSGALTSGVHTFPAVLQSSGLYSLESVVTVPSSSLGTQTYICNVNHKPSNTKVDKKVEPKSCDKTHTCPPCPAPELLGGPSVFLFPPKPKDTLMISRTPEVTCVVVDVSHEDPEVKFNWYVDGVEVHNAKTKPCEEQYGSTYRCVSVLTVLHQDWLNGKEYKCKVSNKALPAPIEKTISKAKGQPREPQVYTLPPSRKKMTKNQVSLTCLVKGFYPSDIAVEWESNGQPENNYKTTPPVLKSDGSFFLYSKLTVDKSRWQQGNVFSCSVMHEALHNHYTQKSLSLSPGK light 2: EIVLTQSPATLSLSPGERATLSCRASRAVSNLHWYQQKPGQAPRLLIKYASQSLSGIPARFSGSGSGTDFTLTISSLEPEDFAVYYCHQSSYLPFTFGPGTKVDIKRTVAAPSVFIFPPSDEQLKSGTASVVCLLNNFYPREAKVQWKVDNALQSGNSQESVTEQDSKDSTYSLESTLTLSKADYEKHKVYACEVTHQGLSSPVTKSFNRGEC heavy 2: not shown"
12.2 fold,0.52 nM,1.2 fold,0.43 nM,"iPS:454751 (bispecific antibody, human IgG1, kappa, lambda, N297G) light 1: QSVLTQPPSVSAAPGQKVTISCSGSYSNIGRYSVSWYQQLPGTAPKLLIYDNNKRPSGIPDRFSGSKSGTSATLGITGLQTGDEADYYCGTWDSRLSAVVFGGGTKLTVLGQPKAAPSVTLFPPSSEELQANKATLVCLISDFYPGAVTVAWKADSSPVKAGVETTTPSKQSNNKYAAKSYLSLTPEQWKSHRSYSCQVTHEGSTVEKTVAPTECS heavy 1: QVQLVESGGGVVQPGRSLRLSCAASGFTFSSFGMHWVRQAPGKGLEWVAVISFDGSIKYSVDSVKGRFTISRDNSKNTLFLQMNSLRAEDTAVYYCARDRLNYYESSGYYHYKYYGMAVWGQGTTVTVSSASTKGPSVFPLAPSSKSTSGGTAALGCLVKDYFPEPVTVSWNSGALTSGVHTFPAVLQSSGLYSLESVVTVPSSSLGTQTYICNVNHKPSNTKVDKKVEPKSCDKTHTCPPCPAPELLGGPSVFLFPPKPKDTLMISRTPEVTCVVVDVSHEDPEVKFNWYVDGVEVHNAKTKPCEEQYGSTYRCVSVLTVLHQDWLNGKEYKCKVSNKALPAPIEKTISKAKGQPREPQVYTLPPSRKKMTKNQVSLTCLVKGFYPSDIAVEWESNGQPENNYKTTPPVLKSDGSFFLYSKLTVDKSRWQQGNVFSCSVMHEALHNHYTQKSLSLSPGK light 2: EIVLTQSPATLSLSPGERATLSCRASKSVGRSLHWYQQKPGQAPRLLIKYASQSLSGIPARFSGSGSGTDFTLTISSLEPEDFAVYYCHQSSRLPFTFGPGTKVDIKRTVAAPSVFIFPPSDEQLKSGTASVVCLLNNFYPREAKVQWKVDNALQSGNSQESVTEQDSKDSTYSLESTLTLSKADYEKHKVYACEVTHQGLSSPVTKSFNRGEC heavy 2: not shown"
